Results published in patent US20260209387A1, “SINGLE-DOMAIN ANTIBODY FOR INHIBITION OF NEUTROPHIL ELASTASE ACTIVITY” (UNIVERSITE DE LIEGE, priority 2023, published 2026).

How the values were obtained:
hNE [1] = target: T1, hNE (Homo sapiens, UniProt P08246); assay: hNE inhibition, hydrolysis of elastin (Elastin-CongoRed); type: biochemical
T1 construct: purchased Elastin Products Company (EPC)
T1 sequence (P08246 30-247): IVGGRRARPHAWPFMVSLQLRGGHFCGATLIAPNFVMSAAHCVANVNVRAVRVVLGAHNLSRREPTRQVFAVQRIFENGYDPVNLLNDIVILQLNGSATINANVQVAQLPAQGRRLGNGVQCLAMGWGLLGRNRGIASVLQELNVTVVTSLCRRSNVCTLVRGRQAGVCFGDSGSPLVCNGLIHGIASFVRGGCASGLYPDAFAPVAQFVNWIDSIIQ
Method: 1.6.2. Inhibition of the hydrolysis of elastin, a natural substrate of hNE. […] The samples were incubated for 16 hours at 37° C. with orbital shaking (900 rpm). The samples were then centrifuged at 90′000 g for 30 minutes at 4° C. to separate the insoluble Elastin from the digested and soluble molecule fragments. The soluble fraction was transferred into a 384-wells clear plate and the absorbance of Congo-red was measured at 495 nm in a SpectraMax M2e Microplates Reader (Molecular Devices, California, USA). The absorbance of the samples at different inhibitor: hNE molar ratios was compared to that measured in the absence of inhibitor, to determine the residual hNE activity. A sample of Elastin-Congo red without elastase was used as blank.

[2] = target: T2, porcine pancreatic elastase (pPE) (Sus scrofa, UniProt P00772); assay: pPE inhibition, substrate Succinyl-Ala-Ala-Ala-paraNitroAnilide; type: biochemical; details: chromogenic substrate
T2 construct: purchased Sigma
Source text: To determine whether NbE201 was specific for hNE, we first investigated its ability to inhibit several serine proteases: pancreatic elastase from pork (pPE, 39.2% sequence identity, from Sigma), mice neutrophil elastase (mNE, 74.9% sequence identity, from EPC) and with two other human serine proteases present in the lung: proteinase 3 (hPR3 from EPC, 54.7% sequence identity) and cathepsin G (hCG from Calbiochem, 36.7% sequence identity). The substrate used were Succinyl-Ala-Ala-Ala-paraNitroAnilide (1 mM in 0.1 M Tris pH 7.5 with NaCl 0.5 M and NaN3 0.01%, % w/v from Sigma-Aldrich) for pPE, MeOSuc-Ala-Ala-Pro-Val-AMC (100 μM in Tris 50 mM, NaCl 1 M, 0.05% (% w/v) Brij-35, pH 7.5) for mNE, N-Succinyl-Ala-Ala-Pro-Phe p-nitroanilide (0.45 mM in 100 mM HEPES pH 7.5, from Sigma Aldrich) for hCG and Boc-Ala-Ala-Nva-SBzl (0.22 mM in 100 mM MOPS pH 5.0 0.5 M NaCl, 100 μM DTNB, DMSO 10%, from EPC) for PR3. mNE (rmELA2 from R&D systems, United Kingdom) was first activated according to the supplier information. In brief, mNE was incubated with recombinant mouse active cathepsin C/DPPIy (rmCathepsin C from R&D systems) in MES 50 mM, NaCl 50 mM, pH 5.5 for 2 h at 37° C. The enzyme concentration in the assay was 6 nM, 14.7 nM, 25 nM, 5 nM for PPE, mNE, hCG and hPR3, respectively. Different molar ratios of NbE201: Enzyme were tested. […]

hNE [3] = target: T1, hNE; assay: Competitive binding by BLI with AAT, EI3 and Nb-H7S-Nter-P1
Method: The biotinylated NbE201 (10 μg/ml in KB buffer) was immobilized on streptavidin biosensors (SA, Sartorius) following the provider's indications. A biosensor quenching step with biocytin 1 μg/mL was performed. […] The association was measured for 280 s in kinetic buffer (KB buffer, Sartorius). The experiments were carried out at 30° C. in 384-wells black-bottom microplates in polypropylene (Greiner Bio-One, Belgium) and with agitation (1000 rpm).

[4] = Heat-induced unfolding by far UV-CD at 206 nm; type: physicochemical; details: far UV-CD 206 nm; average of three batches; pH 7
Method: 1.12.1. Preparation of the samples and measurements. Samples of NbE201 in 0.05 M NaP buffer pH 7 were prepared at a protein concentration of 0.2 mg mL-1. All the experiments were carried out in 1 mm quartz cell and a JASCO J-810 CD spectrophotometer equipped with a Peltier cell-holder. Mineral oil was added on the top of the sample to avoid sample evaporation. The CD spectrum of the native and denatured states of the protein were recorded from 190 nm to 260 nm at 25° C. and at 97° C. 61 data points were recorded with a 1 nm data interval, a data pitch of 0.1 nm, 2 s integration time, a bandwidth of 1 nm and a scanning speed of 50 nm/min. Heat-induced unfolding was monitored by far UV-CD at 206 nm. […] Data were acquired with a reading frequency of 0.05 s^−1 using a 4 s integration time and a 1 nm bandwidth. […]
1.12.2. […] The transition curves obtained were analyzed based on a two-state (N ? U) model and Equation 1 where x is the temperature during the analysis and a=−(ΔHm (1−x/Tm))/RT (doi: 10.1016/j.jmb.2008.11.046), and yobs is the CD signal at 206 nm at a given temperature (x), and YN and YU are the values of these signals for the native and denatured states, respectively at 273K. p and q are the slopes of the pre- and post-transition baselines, respectively, R is the gas constant, and T is the absolute temperature. […]

T2 sequence (P00772 27-266): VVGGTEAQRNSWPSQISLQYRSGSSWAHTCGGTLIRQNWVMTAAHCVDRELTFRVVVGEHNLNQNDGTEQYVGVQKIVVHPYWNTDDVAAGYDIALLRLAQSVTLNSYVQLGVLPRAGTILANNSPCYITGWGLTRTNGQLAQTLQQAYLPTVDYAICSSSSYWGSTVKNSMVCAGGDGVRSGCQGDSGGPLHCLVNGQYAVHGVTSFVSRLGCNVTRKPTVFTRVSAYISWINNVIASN

B1: NbE201: anti-hNE ISVD (VHH/nanobody) from immunized lama, amino acid sequence SEQ ID NO: 4 (protein)
VHH: QVQLQESGGGLVQAGGSLRLSCVVPGRTISLYRMGWFRQAPGKEREFVAGINWSGDMTDYVDSVKGRFTISRDNAKNTVYLEMNSLKPEDTAIYYCTADPKLLPLADSSYGYWGQGTQVTVSS
- hNE residual activity, elastin hydrolysis (hNE [1]; [inhibitor]:[hNE] = 50): almost zero
- inhibition of hNE activity, elastin hydrolysis (hNE [1]; [inhibitor]:[hNE] ratio 15): 80%
- inhibition of porcine pancreatic elastase [2]: does not inhibit
- binding of hNE in complex with AAT to immobilized NbE201 (hNE [3]; hNE 250 nM pre-incubated with AAT 1.5 μM): does not bind to NbE201
- binding of hNE pre-incubated with EI3 (MeOSuc-AAPV-CMK) to immobilized NbE201 (hNE [3]; hNE 250 nM, EI3 15 μM): unable to bind to NbE201
- binding of hNE pre-incubated with cAb-H7S-Nter-P1 to immobilized NbE201 (hNE [3]; hNE 250 nM, cAb-H7S-Nter-P1 1.5 μM): unable to bind to NbE201
- apparent temperature of unfolding (Tm^app) [4]: 70.7±1.5 °C
